{"source": "patent US20210032664", "about": "“ENGINEERED MEGANUCLEASES WITH RECOGNITION SEQUENCES FOUND IN THE HUMAN BETA-2 MICROGLOBULIN GENE” (Precision Biosciences, Inc., published 2021)", "test_in_all_cases": "cell_activity; human T cells, 1 ug mRNA, day 3", "conditions_in_all_cases": "tags: N-terminal SV40 NLS", "key": {"B2M 13-14x.286": {"target": "T1, B2M 13-14x.286 (Artificial Sequence)", "T1 chain": "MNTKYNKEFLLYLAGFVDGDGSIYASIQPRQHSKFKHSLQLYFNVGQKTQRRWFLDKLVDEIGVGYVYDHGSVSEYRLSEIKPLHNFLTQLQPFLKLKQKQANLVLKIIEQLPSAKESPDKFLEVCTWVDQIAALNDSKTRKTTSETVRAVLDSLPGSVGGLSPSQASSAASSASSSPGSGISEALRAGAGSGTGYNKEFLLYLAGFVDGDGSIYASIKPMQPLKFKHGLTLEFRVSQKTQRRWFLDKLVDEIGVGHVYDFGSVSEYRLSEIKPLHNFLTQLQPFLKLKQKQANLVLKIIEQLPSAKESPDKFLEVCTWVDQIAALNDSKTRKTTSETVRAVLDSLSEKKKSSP", "method": "(§1) Donor human T cells were stimulated with anti-CD3 and anti-CD28 antibodies for 3 days, then electroporated with mRNA encoding a given B2M 13-14 meganuclease (1 μg) using the Amaxa 4D-Nucleofector (Lonza) according to the manufacturer's instructions. To look for the loss of B2M surface expression, cells were stained with an antibody recognizing β-2 microglobulin (BD Biosciences) as well as an antibody recognizing CD3 (BioLegend), a marker of T cells."}, "B2M 13-14x.464": {"target": "T2, B2M 13-14x.464 (Artificial Sequence)", "T2 chain": "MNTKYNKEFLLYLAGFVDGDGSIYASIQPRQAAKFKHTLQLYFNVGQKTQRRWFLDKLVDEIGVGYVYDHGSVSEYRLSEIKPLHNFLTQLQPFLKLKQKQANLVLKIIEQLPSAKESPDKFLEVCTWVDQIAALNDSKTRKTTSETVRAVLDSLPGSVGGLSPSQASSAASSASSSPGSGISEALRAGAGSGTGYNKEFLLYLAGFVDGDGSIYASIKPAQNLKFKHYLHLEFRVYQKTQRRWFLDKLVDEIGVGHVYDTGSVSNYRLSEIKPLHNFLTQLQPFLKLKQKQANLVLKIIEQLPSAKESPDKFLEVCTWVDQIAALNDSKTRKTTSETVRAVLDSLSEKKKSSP", "method": "as §1"}, "B2M 13-14x.371": {"target": "T3, B2M 13-14x.371 (Artificial Sequence)", "T3 chain": "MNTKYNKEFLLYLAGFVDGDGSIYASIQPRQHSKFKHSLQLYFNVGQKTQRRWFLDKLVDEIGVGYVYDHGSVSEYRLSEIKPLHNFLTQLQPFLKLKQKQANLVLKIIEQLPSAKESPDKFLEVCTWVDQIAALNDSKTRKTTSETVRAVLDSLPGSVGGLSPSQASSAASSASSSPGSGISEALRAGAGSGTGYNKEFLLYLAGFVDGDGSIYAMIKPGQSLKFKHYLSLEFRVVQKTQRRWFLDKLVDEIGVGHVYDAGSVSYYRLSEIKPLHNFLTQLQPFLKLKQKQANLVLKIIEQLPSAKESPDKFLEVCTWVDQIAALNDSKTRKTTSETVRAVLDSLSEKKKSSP", "method": "as §1"}, "B2M 13-14x.325": {"target": "T4, B2M 13-14x.325 (Artificial Sequence)", "T4 chain": "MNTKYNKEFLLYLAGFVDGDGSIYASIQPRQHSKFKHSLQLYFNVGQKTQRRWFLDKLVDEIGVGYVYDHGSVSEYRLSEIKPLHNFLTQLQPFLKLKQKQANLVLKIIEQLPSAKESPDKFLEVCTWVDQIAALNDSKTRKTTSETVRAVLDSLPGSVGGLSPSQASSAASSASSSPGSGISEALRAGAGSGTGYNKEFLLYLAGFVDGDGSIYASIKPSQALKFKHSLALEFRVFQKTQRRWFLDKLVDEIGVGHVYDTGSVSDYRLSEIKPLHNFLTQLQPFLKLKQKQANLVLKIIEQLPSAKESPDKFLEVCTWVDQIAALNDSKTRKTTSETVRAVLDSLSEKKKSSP", "method": "as §1"}, "B2M 13-14x.285": {"target": "T5, B2M 13-14x.285 (Artificial Sequence)", "T5 chain": "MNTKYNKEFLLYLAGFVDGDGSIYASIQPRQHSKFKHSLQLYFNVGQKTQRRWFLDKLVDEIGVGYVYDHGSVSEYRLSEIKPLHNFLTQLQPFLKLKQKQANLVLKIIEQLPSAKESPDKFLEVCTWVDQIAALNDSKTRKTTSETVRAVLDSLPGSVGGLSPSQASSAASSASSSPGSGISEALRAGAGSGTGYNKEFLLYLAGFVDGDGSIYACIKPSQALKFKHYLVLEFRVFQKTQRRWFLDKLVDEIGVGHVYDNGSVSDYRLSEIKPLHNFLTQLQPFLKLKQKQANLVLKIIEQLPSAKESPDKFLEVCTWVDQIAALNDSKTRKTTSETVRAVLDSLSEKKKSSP", "method": "as §1"}, "B2M 13-14x.479": {"target": "T6, B2M 13-14x.479 (Artificial Sequence)", "T6 chain": "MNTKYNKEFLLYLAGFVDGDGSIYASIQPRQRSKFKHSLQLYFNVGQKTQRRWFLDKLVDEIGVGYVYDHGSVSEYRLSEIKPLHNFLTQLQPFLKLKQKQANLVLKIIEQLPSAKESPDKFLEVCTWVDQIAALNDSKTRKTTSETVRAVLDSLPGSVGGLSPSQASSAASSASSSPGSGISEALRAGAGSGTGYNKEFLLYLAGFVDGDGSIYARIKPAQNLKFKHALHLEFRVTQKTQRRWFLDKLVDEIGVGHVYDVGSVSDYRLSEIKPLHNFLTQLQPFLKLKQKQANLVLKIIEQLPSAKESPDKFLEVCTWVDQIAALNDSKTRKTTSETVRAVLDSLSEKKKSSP", "method": "as §1"}, "B2M 13-14x.202": {"target": "T7, B2M 13-14x.202 (Artificial Sequence)", "T7 chain": "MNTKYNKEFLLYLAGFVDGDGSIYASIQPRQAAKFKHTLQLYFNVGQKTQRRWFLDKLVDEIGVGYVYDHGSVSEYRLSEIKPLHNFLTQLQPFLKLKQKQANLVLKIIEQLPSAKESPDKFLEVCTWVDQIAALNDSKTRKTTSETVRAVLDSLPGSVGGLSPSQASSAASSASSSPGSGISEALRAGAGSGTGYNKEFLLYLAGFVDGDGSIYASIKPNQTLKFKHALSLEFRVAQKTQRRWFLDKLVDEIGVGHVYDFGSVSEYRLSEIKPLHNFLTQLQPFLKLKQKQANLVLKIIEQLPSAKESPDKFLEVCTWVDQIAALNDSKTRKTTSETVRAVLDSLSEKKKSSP", "method": "as §1"}}, "data": [{"binder": "B2M 13-14 recognition sequence (dsDNA) DNA 1: CTATCTCTTGTACTACACTGAA DNA 2: TTCAGTGTAGTACAAGAGATAG", "values": [{"measurement": "activity", "setting": "B2M 13-14x.286", "result": 44.6, "unit": "% B2M-negative"}, {"measurement": "activity", "setting": "B2M 13-14x.464", "result": 8.24, "unit": "% B2M-negative"}, {"measurement": "activity", "setting": "B2M 13-14x.371", "result": 22.6, "unit": "% B2M-negative"}, {"measurement": "activity", "setting": "B2M 13-14x.325", "result": 14.4, "unit": "% B2M-negative"}, {"measurement": "activity", "setting": "B2M 13-14x.285", "result": 22, "unit": "% B2M-negative"}, {"measurement": "activity", "setting": "B2M 13-14x.479", "result": 67.2, "unit": "% B2M-negative"}, {"measurement": "activity", "setting": "B2M 13-14x.202", "result": 60.9, "unit": "% B2M-negative"}]}]}
